Key:
[1] = IP / ubiquitin blot, KG1a-TWIST1 and SKM1; settings: glycan lost; control: non-treated cells
[2] = Western blot, KG1a-TWIST1 and SKM1; settings: glycan lost; control: untreated cells
[3] = CHX chase, TWIST1 stability, KG1a-TWIST1 and SKM1; settings: glycan lost; control: untreated cells
[4] = CHX chase, TWIST1 stability, HEK-293T; settings: glycan lost; control: WT flag-TWIST1
[5] = IP / ubiquitin blot, HEK-293T; settings: glycan lost; control: WT flag-TWIST1
Western blot, HEK-293T = settings: glycan lost; control: WT flag-TWIST1

B1: TWIST1: OSMI-1 (protein)
parent chain: MMQDVSSSPVSPADDSLSNSEEEPDRQQPPSGKRGGRKRRSSRRSAGGGAGPGGAAGGGVGGGDEPGSPAQGKRGKKSAGCGGGGGAGGGGGSSSGGGSPQSYEELQTQRVMANVRERQRTQSLNEAFAALRKIIPTLPSDKLSKIQTLKLAARYIDFLYQVLQSDELDSKMASCSYVAHERLSYAFSVWRMEGAWSMSASH
other: ubiquitination [1]: increases
expression_or_secretion [2]: decreases
degradation_or_half_life [3]: decreases

B2: TWIST1: S31A (protein)
parent chain: B1 parent chain
degradation_or_half_life [4]: decreases
other: ubiquitination [5]: increases
expression_or_secretion (Western blot, HEK-293T): decreases
